According to the supplement of paper PMC6757056:
± gives the standard deviation of the averaged measurements.

B1: library; a variant is named by its letters at N, in order (parent)
chain: GCUGUCACCGGUGCUUGGUACGUUAUAUUCAGCCGGUCUGAUGAGUCUNNNNNNAGACGAAACAGC

Experiments:
[1] = variants of: B1; experiment: FACS-Seq fitted mean relative fluorescence mCherry/BFP without ligand (log10 relative fluorescence); HEK293T overexpressing SLC46A1; higher = higher reporter protein expression; conditions: without (6R,S)-folinic acid; ligand present: no
In short: (§1)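 Genomic DNA from 6 mCherry/BFP sort bins was PCR-amplified, barcoded and sequenced on MiSeq. The sorted cells were enriched HEK293T libraries, lentivirally transduced with a ribozyme-switch mCherry reporter and an EF1α-BFP marker, incubated with or without ligand for 48 h. Fluorescence derives from a normal fit to the bin counts. The fit was on log10(mCherry/BFP), and means were scaled to five spiked-in control ribozymes.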

[2] = variants of: B1; experiment: normalized RNA/DNA level without ligand (relative to sTRSVctl = 100) (log10 (% of sTRSVctl)); HEK293T overexpressing SLC46A1; higher = less ribozyme self-cleavage, higher mRNA level; conditions: without (6R,S)-folinic acid; ligand present: no
In short: (§2)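 HEK293T cells were transfected with library plasmids carrying ribozyme switches linked to an mCherry reporter, or an eGFP reporter in some ligand experiments, at 4 µg per well of a 6-well plate, with any ligand added 1 h beforehand. After 72 h, total RNA was extracted with EDTA, reverse-transcribed, amplified, barcoded and sequenced. RNA level was defined as RNA reads over DNA reads, normalized to a spiked-in non-cleaving sequence or to the top-ranked sequences. That value was multiplied by 100 and converted to log10, the top set was 25 sequences, and only sequences with ≥100 DNA reads were retained.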

[3] = variants of: B1; experiment: FACS-Seq fitted mean relative fluorescence mCherry/BFP with ligand (log10 relative fluorescence); HEK293T overexpressing SLC46A1; ligand concentration (+) FACS-Seq: 6 mM; higher = higher reporter protein expression; conditions: with (6R,S)-folinic acid; ligand present: yes
In short: as §1

[4] = variants of: B1; experiment: normalized RNA/DNA level with ligand (relative to sTRSVctl = 100) (log10 (% of sTRSVctl)); HEK293T overexpressing SLC46A1; ligand concentration (+) RNA-Seq: 6 mM; higher = less ribozyme self-cleavage, higher mRNA level; conditions: with (6R,S)-folinic acid; ligand present: yes
In short: as §2

Variant | FACS-Seq fitted mean (log10) [1] | normalized RNA/DNA level without ligand (log10) [2] | FACS-Seq fitted mean (log10) [3] | normalized RNA/DNA level with ligand (log10) [4]
UGUUAG | 0.447 ± 0.11 | 1.63 ± 0.04 | 0.762 ± 0.15 | 1.929 ± 0.016
UGUUAA | -0.0426 ± 0.13 | 1.92 ± 0.024 | 0.191 ± 0.081 | 1.98 ± 0.022
UGUUAC | 0.317 ± 0.16 | 1.947 ± 0.018 | 0.39 ± 0.013 | 1.99 ± 0.021
AGGUCC | 0.442 ± 0.027 | 2.04 ± 0.0067 | 0.429 ± 0.22 | 2.03 ± 0.021
UGUCUG | 0.171 ± 0.096 | 1.73 ± 0.02 | 0.451 ± 0.14 | 1.96 ± 0.047
UGUUGA | 0.32 ± 0.026 | 1.837 ± 0.015 | 0.463 ± 0.13 | 2.01 ± 0.035
UGUUGG | -0.0684 ± 0.078 | 1.53 ± 0.048 | 0.426 ± 0.024 | 1.88 ± 0.042
AUACAA | 0.428 ± 0.07 | 1.974 ± 0.0047 | 0.215 ± 0.014 | 1.99 ± 0.035
AUACAU | 0.534 ± 0.18 | 1.96 ± 0.022 | 0.452 ± 0.056 | 2.017 ± 0.02
AUACAG | 0.453 ± 0.1 | 1.9374 ± 0.0012 | 0.394 ± 0.44 | 2 ± 0.028
UUAAAA | 0.578 ± 0.062 | 1.9319 ± 0.0016 | 0.669 ± 0.26 | 1.966 ± 0.017
UUAAAG | 0.413 ± 0.085 | 1.822 ± 0.008 | 0.519 ± 0.17 | 1.94 ± 0.042
UUAAAC | 0.248 ± 0.093 | 1.984 ± 0.0098 | 0.271 ± 0.092 | 1.99 ± 0.031
AUAGAC | 0.4594 ± 0.0035 | 1.968 ± 0.0041 | 0.536 ± 0.13 | 1.98 ± 0.017
AUAGAG | 0.0276 ± 0.0023 | 1.52 ± 0.0028 | 0.431 ± 0.14 | 1.89 ± 0.034
AGUCAA | 0.156 ± 0.066 | 1.962 ± 0.0074 | 0.225 ± 0.046 | 1.96 ± 0.053
GGGUGA | 0.435 ± 0.078 | 2.067 ± 0.0049 | 0.36 ± 0.31 | 2.07 ± 0.036
GGGUGC | 0.427 ± 0.079 | 1.969 ± 0.01 | 0.461 ± 0.023 | 2.011 ± 0.007
AGGUGA | 0.616 ± 0.086 | 1.964 ± 0.0069 | 0.768 ± 0.25 | 2.03 ± 0.028
AGGUGG | 0.777 ± 0.14 | 1.977 ± 0.0086 | 0.549 ± 0.26 | 2.05 ± 0.045
AGGUGU | 0.0941 ± 0.074 | 1.954 ± 0.015 | 0.266 ± 0.017 | 2.0099 ± 0.00041
GGGUAU | 0.149 ± 0.054 | 2.014 ± 0.015 | 0.284 ± 0.16 | 2.01 ± 0.033
AGUACG | 0.0935 ± 0.062 | 1.935 ± 0.0077 | -0.00576 ± 0.14 | 2.03 ± 0.045
GGUGGA | 0.534 ± 0.074 | 2.054 ± 0.01 | 0.58 ± 0.079 | 2.06 ± 0.062

Variant | FACS-Seq fitted mean (log10) [1] | normalized RNA/DNA level without ligand (log10) [2] | FACS-Seq fitted mean (log10) [3] | normalized RNA/DNA level with ligand (log10) [4]
GGUACA | -0.547 ± 0.083 | 2.066 ± 0.0024 | -0.647 ± 0.18 | 2.07 ± 0.036
GGUCCA | 0.532 ± 0.025 | 2.029 ± 0.0028 | 0.724 ± 0.15 | 2.01 ± 0.07
UGGUGA | 0.399 ± 0.049 | 1.881 ± 0.0069 | 0.443 ± 0.061 | 2.014 ± 0.0098
UGGUGG | 0.464 ± 0.054 | 1.736 ± 0.014 | 0.742 ± 0.064 | 1.96 ± 0.031
UGGUGU | 0.386 ± 0.1 | 1.933 ± 0.014 | 0.292 ± 0.034 | 2.01 ± 0.048
GUAAGC | 0.239 ± 0.059 | 1.896 ± 0.0061 | 0.33 ± 0.072 | 2.01 ± 0.013
GUAAGG | 0.183 ± 0.078 | 1.946 ± 0.015 | 0.381 ± 0.047 | 2.025 ± 0.015
CGUAAA | 0.203 ± 0.0032 | 1.956 ± 0.0076 | 0.334 ± 0.32 | 1.977 ± 0.017
CGUAAU | 0.544 ± 0.015 | 1.93 ± 0.029 | 0.552 ± 0.14 | 1.96 ± 0.022
AUACCA | -0.158 ± 0.032 | 2.036 ± 0.01 | -0.268 ± 0.23 | 2.01 ± 0.043
UGUUUG | 0.222 ± 0.04 | 1.794 ± 0.0043 | 0.62 ± 0.05 | 2.01 ± 0.025
UGUUUU | 0.296 ± 0.18 | 1.985 ± 0.0066 | 0.546 ± 0.13 | 2.03 ± 0.023
CGGUUA | 0.594 ± 0.087 | 1.9899 ± 0.00027 | 0.531 ± 0.12 | 2.02 ± 0.056
CUAAUA | 0.179 ± 0.11 | 1.974 ± 0.0043 | 0.335 ± 0.36 | 1.982 ± 0.007
GUACUU | 0.484 ± 0.059 | 2.034 ± 0.015 | 0.386 ± 0.2 | 2.04 ± 0.06
GUACUC | 0.541 ± 0.13 | 2.051 ± 0.016 | 0.366 ± 0.17 | 2.041 ± 0.013
GUACUA | 0.314 ± 0.17 | 2.046 ± 0.0037 | 0.428 ± 0.14 | 2.04 ± 0.026
AUACUC | 0.248 ± 0.028 | 2.049 ± 0.0056 | 0.188 ± 0.18 | 2.03 ± 0.037
CGUCUA | -0.111 ± 0.073 | 2.0035 ± 0.0014 | 0.325 ± 0.29 | 2.033 ± 0.0082
CGUCUC | 0.692 ± 0.063 | 2.06 ± 0.013 | 0.48 ± 0.48 | 1.996 ± 0.015
UGUCGG | 0.0192 ± 0.057 | 1.66 ± 0.015 | 0.166 ± 0.29 | 1.94 ± 0.043
UGUCGU | 0.152 ± 0.076 | 1.95 ± 0.012 | 0.267 ± 0.017 | 2 ± 0.021
AGUAUG | 0.41 ± 0.013 | 1.89 ± 0.022 | 0.586 ± 0.1 | 1.994 ± 0.019
UGUCCA | 0.433 ± 0.12 | 2.02 ± 0.025 | 0.395 ± 0.04 | 2.024 ± 0.014

Variant | FACS-Seq fitted mean (log10) [1] | normalized RNA/DNA level without ligand (log10) [2] | FACS-Seq fitted mean (log10) [3] | normalized RNA/DNA level with ligand (log10) [4]
AUACGG | 0.263 ± 0.033 | 1.919 ± 0.0086 | 0.367 ± 0.16 | 1.98 ± 0.02
AGUCGA | 0.3437 ± 0.0018 | 1.974 ± 0.012 | 0.506 ± 0.09 | 2.021 ± 0.0067
AGUCGU | 0.209 ± 0.14 | 1.979 ± 0.013 | -0.0314 ± 0.084 | 2.03 ± 0.029
UUAAUA | 0.0221 ± 0.032 | 2.006 ± 0.0071 | 0.171 ± 1.6 | 2.02 ± 0.022
UUAAUG | 0.316 ± 0.0067 | 1.819 ± 0.0065 | 0.461 ± 0.14 | 1.97 ± 0.012
UGUGUG | 0.164 ± 0.26 | 1.591 ± 0.003 | 0.393 ± 0.24 | 1.94 ± 0.062
UGUGUA | 0.429 ± 0.1 | 1.895 ± 0.0065 | 0.399 ± 0.015 | 2.01 ± 0.021
UGGUUG | 0.266 ± 0.011 | 1.829 ± 0.014 | 0.626 ± 0.09 | 1.98 ± 0.015
AGUUCA | 0.161 ± 0.15 | 2.005 ± 0.006 | -0.01 ± 0.41 | 2.008 ± 0.012
GGUAGU | 0.312 ± 0.15 | 1.988 ± 0.0021 | 0.316 ± 0.16 | 2.01 ± 0.055
UGUUCC | 0.382 ± 0.066 | 2.05 ± 0.023 | 0.146 ± 0.006 | 2.05 ± 0.062
UUACUG | -0.466 ± 0.24 | 1.902 ± 0.011 | -0.804 ± 0.28 | 2.01 ± 0.066
GUAAAA | 0.0987 ± 0.013 | 1.998 ± 0.0036 | -0.0576 ± 0.026 | 1.96 ± 0.046
GUAAAC | 0.139 ± 0.033 | 1.965 ± 0.0075 | 0.507 ± 0.47 | 2.04 ± 0.0061
GUAAAU | 0.332 ± 0.13 | 1.971 ± 0.0055 | 0.464 ± 0.033 | 2.003 ± 0.0095
GGGUUG | 0.344 ± 0.19 | 2.037 ± 0.0021 | 0.56 ± 0.17 | 2.05 ± 0.049
UGUGCG | 0.0533 ± 0.02 | 1.657 ± 0.011 | 0.442 ± 0.14 | 1.96 ± 0.05
UGUGCU | 0.259 ± 0.17 | 2.024 ± 0.011 | 0.414 ± 0.076 | 2.07 ± 0.03
UUAAGA | 0.166 ± 0.039 | 1.95 ± 0.024 | 0.272 ± 0.014 | 2.04 ± 0.029
UUAAGG | 0.0635 ± 0.0074 | 1.855 ± 0.0022 | 0.25 ± 0.22 | 1.98 ± 0.025
UUACGU | 0.339 ± 0.078 | 1.97 ± 0.0066 | 0.15 ± 0.074 | 2.01 ± 0.044
AGUUGC | 0.455 ± 0.088 | 2.001 ± 0.0034 | 0.705 ± 0.23 | 2.03 ± 0.016
AGUUGU | 0.3648 ± 0.0018 | 1.962 ± 0.012 | 0.521 ± 0.35 | 2.04 ± 0.028
